For 1 protein, Km, kcat and kcat/Km results are on record in article PMC6999076, “Engineered disulfide bonds improve thermostability and activity of L‐isoleucine hydroxylase for efficient 4‐HIL production in Bacillus subtilis 168” (Engineering in Life Sciences, 2019).

A word on the Km: it is the concentration of substrate that gives half-maximal velocity. Usually kcat stands for the maximal rate divided by the concentration of active sites. The kcat/Km is the turnover number divided by the Michaelis constant.

Substrate in data set [1]: CC[C@H](C)[C@H](N)C(=O)O
The data set is described as follows: DNFB precolumn derivatization HPLC of 4-HIL; Michaelis-Menten fit. Format: biochemical, Bacillus cereus. To be noted: 20 mM alpha-KG, assay: 1 mM FeSO4, 5 mM ascorbic acid, PBS pH 7.0, 30°C.

Substrate in data set [2]: O=C(O)CCC(=O)C(=O)O
Described as above. Format: biochemical, Bacillus cereus. The settings on record: 20 mM L-Ile, assay: 1 mM FeSO4, 5 mM ascorbic acid, PBS pH 7.0, 30°C.

B1: L-isoleucine hydroxylase (IDO) (Bacillus cereus ATCC 14579) (protein)
chain: MTFVLSKMNGFSIEEKVHEFESKGFLEISNEIFLQEEENHRLLTQAQLDYYNLEDDAYGECRARSYSRYIKYVDSPDYILDNSNDYFQSKEYNYDDGGKVRQFNSINDSFLCNPLIQNIVRFDTEFAFKTNIIDTSKDLIIGLHQVRYKATKERPSFSSPIWLHKDDEPVVFLHLMNLSNTAIGGDNLIANSPREINQFISLKEPLETLVFGQKVFHAVTPLGTECSTEAFRDILLVTFSYKETK
notes: full-length, 6xHis tag (downstream primer, C-terminal) kept; free cysteines C61, C112, C226; GenBank AE016877.1 is a whole-genome record (B. cereus ATCC 14579), not a gene record
In the case of B1, in data set [1], the Km is 260 µM, the kcat is 0.84 s⁻¹ and the kcat/Km was determined as 3180 M⁻¹ s⁻¹. In data set [2], the Km is 3340 µM, the kcat came to 0.32 s⁻¹ and the kcat/Km came out at 90 M⁻¹ s⁻¹.
